Test results published in publication PMC2668188, “In Vitro Recombination Catalyzed by Bacterial Class 1 Integron Integrase IntI1 Involves Cooperative Binding and Specific Oligomeric Intermediates”.

T1: IntI1(His)6 integron integrase (Pseudomonas aeruginosa Pa695 (class 1 …, UniProt Q7BP41 1-337))
T1 sequence: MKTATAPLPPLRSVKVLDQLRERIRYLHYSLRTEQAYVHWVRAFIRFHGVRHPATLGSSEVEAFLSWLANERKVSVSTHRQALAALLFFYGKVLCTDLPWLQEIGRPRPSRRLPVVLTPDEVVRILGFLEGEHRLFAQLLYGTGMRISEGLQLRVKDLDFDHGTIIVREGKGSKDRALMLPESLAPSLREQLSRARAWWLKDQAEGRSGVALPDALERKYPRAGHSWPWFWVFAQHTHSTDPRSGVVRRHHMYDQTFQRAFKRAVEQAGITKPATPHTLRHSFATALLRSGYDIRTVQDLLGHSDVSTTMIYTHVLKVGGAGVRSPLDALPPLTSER

B1: dsattI1 (dsDNA)
DNA 1: ACGCCGTGGGTCGATGTTTGATGTTATGGAGCAGCAACGATGTTACGCAGCAGGGCAGTCGCCCTAAAACAAAGTTAGGTGGCTCAATGAGCATCATTGC
DNA 2: GCAATGATGCTCATTGAGCCACCTAACTTTGTTTTAGGGCGACTGCCCTGCTGCGTAACATCGTTGCTGCTCCATAACATCAAACATCGACCCACGGCGT
B2: dsattC (dsDNA)
DNA 1: CGCCCGTCTAACAATTCGTTCAAGCCGACGTTGCTTCGTGGCGGCGCTTGCGTGCTACGCTAAGCTTCGCACGCCGCTTGCCACTGCGCACCGCGGCTTAACTCAGGCGTTAGATGCACT
DNA 2: AGTGCATCTAACGCCTGAGTTAAGCCGCGGTGCGCAGTGGCAAGCGGCGTGCGAAGCTTAGCGTAGCACGCAAGCGCCGCCACGAAGCAACGTCGGCTTGAACGAATTGTTAGACGGGCG

Tests used:
[1] = biological target: T1, IntI1(His)6 integron integrase; test: EMSA; EMSA: 0.1 pmol DNA, 1-15 pmol IntI1 in 20 µl, 20 min at 4°C, 1% agarose at 4°C; filter binding wash: HEPES 20 mM pH 7.5, MnCl2 10 mM, NaCl 30 mM (binding buffer itself not given); conditions: protein: recombinant; tags: His6; chain copies: 2; label: 5' 32P; blunt
[2] = biological target: T1, IntI1(His)6 integron integrase; test: EMSA; filter binding; preincubated with dsattI1 (0.1 pmol); binding strongly increased, almost to bsattC level; EMSA: 0.1 pmol DNA, 1-15 pmol IntI1 in 20 µl, 20 min at 4°C, 1% agarose at 4°C; filter binding wash: HEPES 20 mM pH 7.5, MnCl2 10 mM, NaCl 30 mM (binding buffer itself not given); conditions: protein: recombinant; tags: His6; chain copies: 2; label: 5' 32P; blunt

Row | Binder | binding result [1] | binding result [2]
1 | B1 | binds | 
2 | B2 |  | binds
